{
  "source": "patent US8722622B2",
  "about": "“FGF21 conjugates and anti-diabetic uses thereof” (COVX Technologies Ireland, Limited, priority 2010, dated 2014)",
  "key": {"[1]": {"parameters": "species or system Swiss-Webster mice", "conditions": "mouse, in vivo", "description": "The PK of FGF21 antibody conjugates were examined in mice after IV or SC administration. […] Antibody conjugates concentrations in serum were determined using an ELISA which captured the FGF21 portion of the antibody conjugates through a monoclonal anti-hFGF21 antibody bound to a 96-well plate. FGF21 antibody conjugates bound to the plate were detected through an anti-hFc monoclonal antibody, and concentrations were determined using a standard curve of the PK dosing solution diluted into serum-containing assay buffer. SC bioavailability was calculated as the ratio of the area-under the curve (AUC) of the SC serum concentration profile divided by the AUC of the IV serum concentration profile."}, "[2]": {"tested_on": "DIO mice", "assay": "Mouse efficacy in high-fat diet-induced obese (DIO) mice", "type": "in vivo", "conditions": "day 10, 1 mg/kg QD", "description": "The efficacy of FGF21 antibodies conjugates was evaluated in two murine obese insulin resistant models—ob/ob mice and high-fat diet-induced obese mice. For both models, male mice (6-8 weeks of age for ob/ob, 12-14 weeks of age for DIO with high-fat diet initiated at 6 weeks of age) were housed 2-4/cage and FGF21 antibody conjugates were administered by SC injection. Body weight was measured daily in the morning. Glucose tolerance was assessed by oral glucose tolerance test. Briefly, mice were fasted for 4-5 hrs in the morning of the day of testing. A basal blood sample was obtained and blood glucose levels were determined using a portable glucometer. Following basal sample, glucose was administered by oral gavage, and blood samples were drawn from 15 to 120 mins thereafter.\nFor […] expression, frozen visceral WAT samples collected from the in vivo efficacy studies were homogenized. Total RNA was extracted from the tissue homogenates, and Glut1 and GAPDH mRNA expression was measured using a Quantitect Probe RT-PCR kit and running a quantitative real time PCR reaction in a Taqman machine (Applied Biosystems). The effect of treatment was determined by a fold change in Glut1 mRNA levels normalized by the GAPDH mRNA levels from each sample."}},
  "data": [
    {"molecule": "FGF21ΔH: FGF21 with H1 absent (ΔH1), L146, SEQ ID NO:2; control protein (protein, listed as Homo sapiens) PIPDSSPLLQFGGQVRQRYLYTDDAQQTEAHLEIREDGTVGGAADQSPESLLQLKALKPGVIQILGVKTSRFLCQRPDGALYGSLHFDPEACSFRELLLEDGYNVYQSEAHGLPLHLPGNKSPHRDPAPRGPARFLPLPGLPPAPLEPPGILAPQPPDVGSSDPLSMVGPSQGRSPSYAS", "values": [
      {"measurement": "IV T1/2", "setting": "[1]; iv", "result": 24, "unit": "min"},
      {"measurement": "% SC BioAv", "setting": "[1]; sc", "result": 96, "unit": "%"},
      {"measurement": "SC T1/2", "setting": "[1]; sc", "result": 30, "unit": "min"},
      {"measurement": "Body weight change from day −1", "setting": "[2]", "result": "−1.6"},
      {"measurement": "Glucose AUC during OGTT", "setting": "[2]", "result": 75},
      {"measurement": "Mean values of serum lipids NEFA", "setting": "[2]", "result": 0.40, "unit": "mM"},
      {"measurement": "Mean values of serum lipids TG", "setting": "[2]", "result": 92, "unit": "mg/dL"},
      {"measurement": "UCP1 mRNA expression in WAT", "setting": "[2]", "result": 1.38}
    ]}
  ]
}
